Laboratory results from PMC2911679.
Where two headings read alike, the source gives them in different places.

Columns and labels:
Assay in all cases: AlphaScreen or HTRF
[1] = biological target: His6-tagged GFP–SRY-HMG F67V (SRY residues 55–141) (human) (UniProt Q05066)
[2] = biological target: His6-tagged GFP–SRY-HMG M64T (SRY residues 55–141) (human) (UniProt Q05066)
[3] = biological target: His6-tagged GFP–SRY-HMG R76P (SRY residues 55–141) (human) (UniProt Q05066)
[4] = biological target: His6-tagged GFP–SRY-HMG R76P (SRY residues 55–141) (human) (UniProt Q05066); remark: listed apart in the source

Kd [1]: 1.25 nM
Kd [2]: 2.05 nM
Kd [3]: 1.18 nM
Kd [4]: 2.05 nM
Substance: biotin-labelled calmodulin (CaM) (from UniProt P0DP23 1-149) (natural protein)
